From the supplement of paper PMC6757056
± gives the standard deviation of the averaged measurements.

B1: library; a variant is named by its letters at N, in order (parent)
chain: GCUGUCACCGAGAAACUGUGAAGUAUAUCUUAAACCUGGGCACUUAAAAGAUAUAUGGAGUUAGUAGUGCAACCUGCUCGGUCUGAUGAGUCCNNNNNNGGACGAAACAGC

Legend:
cyclic di-GMP [1] = variants of: B1; assay: FACS-Seq fitted mean relative fluorescence mCherry/BFP without ligand (log10 relative fluorescence); HEK293T; ligand: cyclic di-GMP (c-di-GMP-II aptamer); higher = higher reporter protein expression; details: ligand present: no
In short: (§1)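 The ribozyme switch sat in an mCherry reporter, delivered by lentivirus into HEK293T libraries along with an EF1α-BFP marker. Enriched cells were incubated 48 h with or without ligand, sorted into 6 bins by mCherry/BFP, and bin genomic DNA was PCR-amplified, barcoded and MiSeq-sequenced. Fluorescence equals the fitted normal mean of the bin counts after normalization. Those log10(mCherry/BFP) means were scaled to five spiked-in control ribozymes.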

cyclic di-GMP [2] = variants of: B1; assay: normalized RNA/DNA level without ligand (relative to sTRSVctl = 100) (log10 (% of sTRSVctl)); HEK293T; ligand: cyclic di-GMP (c-di-GMP-II aptamer); higher = less ribozyme self-cleavage, higher mRNA level; details: reporter: mCherry (pCS4076), ligand present: no
Experimental: (§2)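 Hammerhead (sTRSV) ribozyme switch libraries with a ligand aptamer grafted on stem I and a randomized N4-6 loop II, cloned into the 3' UTR of mCherry and transiently transfected into HEK293T cells; RNA-Seq 72 h post transfection with ligand added 1 h before transfection; RNA read count / plasmid DNA read count normalized to the non-cleaving sTRSVctl (x100), log10; sequences with >100 DNA reads. FACS-Seq: lentiviral library sorted into 6 bins after 48 h ligand, log-normal fit mean of mCherry/BFP scaled to controls. Printed sequences are partial switch sequences.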

cyclic di-GMP [3] = variants of: B1; assay: FACS-Seq fitted mean relative fluorescence mCherry/BFP with ligand (log10 relative fluorescence); HEK293T; ligand: cyclic di-GMP (c-di-GMP-II aptamer); ligand concentration (+) FACS-Seq: 1 mM; higher = higher reporter protein expression; details: ligand present: yes
In short: as §1

cyclic di-GMP [4] = variants of: B1; assay: normalized RNA/DNA level with ligand (relative to sTRSVctl = 100) (log10 (% of sTRSVctl)); HEK293T; ligand: cyclic di-GMP (c-di-GMP-II aptamer); ligand concentration (+) RNA-Seq: 1 mM; higher = less ribozyme self-cleavage, higher mRNA level; details: reporter: mCherry (pCS4076), ligand present: yes
Experimental: as §2

Row | Variant | FACS-Seq fitted mean (log10) (cyclic di-GMP [1]) | normalized RNA/DNA level without ligand (log10) (cyclic di-GMP [2]) | FACS-Seq fitted mean (log10) (cyclic di-GMP [3]) | normalized RNA/DNA level with ligand (log10) (cyclic di-GMP [4])
1 | GCUGUCACCGAGAAACUGUGAAGUAUAUCUUAAACCUGGGCACUUAAAAGAUAUAUGGAGUUAGUAGUGCAACCUGCUCGGUCUGAUGAGUCCAACAAGGGACGAAACAGC [AACAAG] | -0.43 ± 0.028 | 1.523 ± 0.0073 | -0.281 ± 0.037 | 1.73 ± 0.088
2 | GCUGUCACCGAGAAACUGUGAAGUAUAUCUUAAACCUGGGCACUUAAAAGAUAUAUGGAGUUAGUAGUGCAACCUGCUCGGUCUGAUGAGUCCAACAAUGGACGAAACAGC [AACAAU] | -0.133 ± 0.038 | 1.594 ± 0.0028 | 0.103 ± 0.014 | 1.71 ± 0.13
3 | GCUGUCACCGAGAAACUGUGAAGUAUAUCUUAAACCUGGGCACUUAAAAGAUAUAUGGAGUUAGUAGUGCAACCUGCUCGGUCUGAUGAGUCCCACACAGGACGAAACAGC [CACACA] | -0.628 ± 0.032 | 1.45 ± 0.11 | -0.354 ± 0.056 | 1.64 ± 0.089
4 | GCUGUCACCGAGAAACUGUGAAGUAUAUCUUAAACCUGGGCACUUAAAAGAUAUAUGGAGUUAGUAGUGCAACCUGCUCGGUCUGAUGAGUCCUACAACGGACGAAACAGC [UACAAC] | 0.031 ± 0.034 | 1.68 ± 0.03 | 0.268 ± 0.013 | 1.8 ± 0.11
5 | GCUGUCACCGAGAAACUGUGAAGUAUAUCUUAAACCUGGGCACUUAAAAGAUAUAUGGAGUUAGUAGUGCAACCUGCUCGGUCUGAUGAGUCCGACAAGGGACGAAACAGC [GACAAG] | -0.339 ± 0.07 | 1.55 ± 0.029 | -0.0999 ± 0.034 | 1.72 ± 0.084
6 | GCUGUCACCGAGAAACUGUGAAGUAUAUCUUAAACCUGGGCACUUAAAAGAUAUAUGGAGUUAGUAGUGCAACCUGCUCGGUCUGAUGAGUCCGACAACGGACGAAACAGC [GACAAC] | -0.156 ± 0.0096 | 1.63 ± 0.022 | 0.197 ± 0.1 | 1.82 ± 0.12
7 | GCUGUCACCGAGAAACUGUGAAGUAUAUCUUAAACCUGGGCACUUAAAAGAUAUAUGGAGUUAGUAGUGCAACCUGCUCGGUCUGAUGAGUCCCACAAAGGACGAAACAGC [CACAAA] | -0.504 ± 0.031 | 1.24 ± 0.14 | -0.278 ± 0.055 | 1.46 ± 0.12
